Patent US20190031754A1 (Scripps Research, published 2019)
Like-named read-outs stand apart in the source and are kept apart here.

What was measured:
hFc-hROR1 = target: T1, hFc-hROR1 (human, UniProt Q01973 30-403, limits assumed); test: ELISA, coated antigen 100 ng/well, anti-His HRP, absorbance 405 nm
T1 construct: also called ROR1 (ELISA control); not shown: human Fc (hFc) of pCEP4-hFc-hROR1 (Yang et al., 2011)

BSA = target: T2, BSA (bovine, UniProt P02769); test: as above
T2 construct: also called bovine serum albumin

[1] = target: T3, recombinant human twin strep-tagged ROR2 extracellular domain (human, UniProt Q01974 34-403); test: ELISA, IgG titrated on coated twin-strep human ROR2 ECD; fit printed as IC50
T3 construct: extracellular domain; Made in HEK293T, Streptactin purified; also called Human ROR2-TwinStrep; human ROR2

[2] = target: T4, anti-human Fc (Jackson ImmunoResearch, 109-006-008); test: ELISA, IgG titrated on coated anti-human Fc; fit printed as IC50
T4 construct: Coated on a control plate to capture the chimeric IgG1 antibodies through their human Fc; also called IgG

[3] = target: T4, anti-human Fc (Jackson ImmunoResearch, …); test: as above; remark: listed apart in the source
[4] = target: T5, full-length human ROR2 on cells (human, UniProt Q01974 34-943); test: flow cytometry, 63-12 cells expressing hROR2, Fab 1 µg/100 µL, anti-His Alexa Fluor 488
T5 construct: whole, on cells; the cells are named under assay; In the Western blot it is denatured; also called hROR2; cell surface human ROR2

[5] = target: T3, recombinant human twin strep-tagged …; test: ELISA, IgG titrated on coated twin-strep human ROR2 ECD; fit printed as IC50; remark: listed apart in the source
[6] = target: T6, recombinant cynomolgus twin strep-tagged ROR2 extracellular domain (cynomolgus monkey, UniProt A0A7N9D5U8 34-403); test: ELISA, IgG titrated on coated twin-strep cynomolgus ROR2 ECD; fit printed as IC50
T6 construct: extracellular domain; Made in HEK293T, Streptactin purified; also called cynomolgus ROR2; cynomolgus ROR2-TwinStrep

[7] = target: T6, recombinant cynomolgus twin …; test: SPR, Biacore T200, IgG captured by anti-human Fcγ, ROR2-TwinStrep as analyte, 1:1 Langmuir
[8] = target: T3, recombinant human twin strep-tagged …; test: as above

T2 sequence (P02769 25-607 limits assumed): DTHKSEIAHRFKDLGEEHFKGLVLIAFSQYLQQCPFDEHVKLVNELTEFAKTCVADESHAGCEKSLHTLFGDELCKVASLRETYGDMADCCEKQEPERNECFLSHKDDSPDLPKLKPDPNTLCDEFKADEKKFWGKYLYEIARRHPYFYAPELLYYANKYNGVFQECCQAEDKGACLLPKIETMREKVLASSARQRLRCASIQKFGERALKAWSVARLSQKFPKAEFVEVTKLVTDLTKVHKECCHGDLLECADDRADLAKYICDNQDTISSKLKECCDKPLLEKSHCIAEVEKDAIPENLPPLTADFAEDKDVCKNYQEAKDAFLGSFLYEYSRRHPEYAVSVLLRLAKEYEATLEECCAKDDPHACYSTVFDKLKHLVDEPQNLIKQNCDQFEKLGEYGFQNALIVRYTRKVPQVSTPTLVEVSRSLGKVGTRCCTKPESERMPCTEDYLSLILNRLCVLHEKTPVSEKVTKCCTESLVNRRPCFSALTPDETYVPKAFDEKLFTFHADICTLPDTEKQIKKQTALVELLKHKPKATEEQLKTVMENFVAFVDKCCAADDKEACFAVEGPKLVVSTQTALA
T1 sequence (Q01973 30-403 limits assumed): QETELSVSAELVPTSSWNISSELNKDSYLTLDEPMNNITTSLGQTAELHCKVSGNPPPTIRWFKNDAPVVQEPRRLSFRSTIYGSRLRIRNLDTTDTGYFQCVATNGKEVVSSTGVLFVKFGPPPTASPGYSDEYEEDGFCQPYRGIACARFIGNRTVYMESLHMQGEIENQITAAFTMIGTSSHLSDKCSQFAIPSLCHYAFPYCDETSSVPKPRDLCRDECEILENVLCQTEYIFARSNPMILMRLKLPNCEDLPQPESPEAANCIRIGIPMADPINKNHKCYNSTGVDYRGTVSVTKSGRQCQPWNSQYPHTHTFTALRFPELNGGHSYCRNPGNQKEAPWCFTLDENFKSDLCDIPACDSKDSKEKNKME

B1: chimeric rabbit/human Fab XBR2-327 (Fab, V domains shown)
VH: QEQLKESGGGLFKPTDTLTLTCTVSGFSLSSGAISWVRQAPGNGLEYIGFVNSLGNTYYANWAKSRSAITRNTNENTVTLKMTSLAAADTATYFCAKDYGNWAFDPWGPGTLVTVSS
VL: DPVLTQTPSSVSAAVGGTVAINCQASQSISSYLSWYQQKPGQPPKLLIYGASKLASGVPSRFSGSGSGTEYTLTISGVQREDAATYYCLGGYASASYRTAFGGGTKLEIK
binding result (hFc-hROR1): no binding (tested: 100 ng/50 µL) | binding result (BSA): no binding (tested: 100 ng/50 µL)

B2: chimeric rabbit/human Fab ERR2-317 (Fab, V domains shown)
VH: QSLEESGGRLVTPGTPLTLTCTASGFSLSSYDMIWVRQAPGKGLEYIGIINAGGNTYYASWAKGRFTISRTSTTVDLKMTSPTTEDTATYFCARGSSWTGDIWGPGTLVTVSS
VL: DPVLTQTPSSTSAAVGGTVTIKCQASQSISSYLSWYQQKPGQPPKQLIYAASTLASGVPSRFKGSGSGTEYTLTISGVQREDAATYYCLGGYASASYQTAFGGGTKVEIK
binding result (hFc-hROR1): no binding (tested: 100 ng/50 µL) | binding result (BSA): no binding (tested: 100 ng/50 µL)

B3: XBR2-327 (mAb007) (antibody, human IgG1, V domains shown)
VH: QEQLKESGGGLFKPTDTLTLTCTVSGFSLSSGAISWVRQAPGNGLEYIGFVNSLGNTYYANWAKSRSAITRNTNENTVTLKMTSLAAADTATYFCAKDYGNWAFDPWGPGTLVTVSS
VL: DPVLTQTPSSVSAAVGGTVAINCQASQSISSYLSWYQQKPGQPPKLLIYGASKLASGVPSRFSGSGSGTEYTLTISGVQREDAATYYCLGGYASASYRTAFGGGTKLEIK
notes: Full-length chimeric rabbit/human IgG1, human IgH-gamma1 and IgL-kappa constant regions; C-terminal tags HC: LPETG-Strep, LC: G5SLPETG-Strep
IC50 [1]: 0.00057 µg/mL | IC50 [2]: 10.2 ng/mL | IC50 [3]: 0.0433 µg/mL

B4: chimeric rabbit/human Fab XBR2-TOP72 (Fab, V domains shown)
VH: QEQLEESGGRLVTPGTPLTLTCTVSGIDLSSNAMSWVRQAPGKGLEYVGFINGGGGVHYASWARGRFTISKTSTTVDLKITSPTTEDTATYFCARAGTTYYTSFNLWGPGTLVTISS
VL: QFVLTQSPSASAALGSSAKLTCTLSSAHKTYTIAWYQQQQGEAPRLLMMLRTDGSYTKGTGVPDRFSGSSSGADRYLIISSVQADDAAGYYCGADYSGGYVFGGGTQLTVTG
binding result (hFc-hROR1): no binding (tested: 100 ng/50 µL) | binding result (BSA): no binding (tested: 100 ng/50 µL) | binding result [4]: binds

B5: chimeric rabbit/human Fab ERR2-TOP35 (Fab, V domains shown)
VH: QSVKESEGGLFKPMDTLTLTCTVSGFSLNTYGVSWVRQAPGNGLEWIGAVGSSGATNYASWAKSRSTITRNTNENTVTLKMTSLTAADTATYFCARDGYYSSGWGPYFSIWGPGTLVTVSS
VL: SFVLTQPASVQVNLGQTVSLTCTAETLRSSYASWYQQKPGQAPVLLIYRDTSRPSGVPDRFSGSSSGNTATLTISGAQAGDEADYYCATSDGSGSRYYVFGGGTQLTVTG
binding result (hFc-hROR1): no binding (tested: 100 ng/50 µL) | binding result (BSA): no binding (tested: 100 ng/50 µL)

B6: chimeric rabbit/human Fab XBR2-433 (Fab, V domains shown)
VH: QSVKESEGGLFKPTDTLTLTCTVSGFSLSTYGVSWVRQAPGNGLEWIGAIGSSGSANYASWAKDRSTITRNTNLNTVTLKMTSLTAADTATYFCARDGYYSSGWGPYFNIWGPGTLVTISS
VL: SFVLTQPASVQVNLGQTVSLTCTADTLSRSYASWYQQKPGQAPVLLIYRDTSRPSGVPDRFSGSSSGNTATLTISGAQAGDEADYYCATSGGSGSNPQYVFGGGTQLTVTG
notes: also called Fab 4-33
binding result (hFc-hROR1): no binding (tested: 100 ng/50 µL) | binding result (BSA): no binding (tested: 100 ng/50 µL)

B7: chimeric rabbit/human Fab ERR2-302 (Fab, V domains shown)
VH: QKQLVESGGGLVKPGGSLTLTCTVSGFSLSSYAIGWVRQAPGNGLEWIGIINSYGSTYYASWAKSRSTITRNTNLNTVTLKMTSLTAADTATYFCARSPYGYVSAWGYHRLDLWGQGTLVTISS
VL: SYELTQLPSVSVSLGQTARITCGGASIGSKVVHWYQQKPGLAPGLLIYDDDERPSGVPDRFSGSNSGDTATLTISGAQAGDEAEYYCQLWDGSDVVFGGGTQLTVTG
binding result (hFc-hROR1): no binding (tested: 100 ng/50 µL) | binding result (BSA): no binding (tested: 100 ng/50 µL)

B8: chimeric rabbit/human Fab XBR2-401 (Fab, V domains shown)
VH: QSVKESEGGLFKPTDTLTLTCTVSGFSLSSYGVTWVRQAPGSGLEWIGYINTAGNTYYASWAKSRSTITRNTNENTVTLKMTSLTAADTATYFCARDWTSLNIWGPGTLVTVSS
VL: DPMLTQTPSSTSTAVGDTVTIKCQASQSISSDLSWYQQKPGQRPKLLIYQASTLASGVPSRFKGSGYGTEYTLTISGVQREDAAIYYCLGGYADASYRTAFGGGTKLEIK
notes: also called Fab 4-1
binding result (hFc-hROR1): no binding (tested: 100 ng/50 µL) | binding result (BSA): no binding (tested: 100 ng/50 µL)

B9: XBR2-401 (mAb003) (antibody, human IgG1, V domains shown)
VH: QSVKESEGGLFKPTDTLTLTCTVSGFSLSSYGVTWVRQAPGSGLEWIGYINTAGNTYYASWAKSRSTITRNTNENTVTLKMTSLTAADTATYFCARDWTSLNIWGPGTLVTVSS
VL: DPMLTQTPSSTSTAVGDTVTIKCQASQSISSDLSWYQQKPGQRPKLLIYQASTLASGVPSRFKGSGYGTEYTLTISGVQREDAAIYYCLGGYADASYRTAFGGGTKLEIK
notes: Full-length chimeric rabbit/human IgG1 (kappa) with C-terminal tags HC: LPETG-Strep, LC: G5SLPETG-Strep
IC50 [1]: 0.0419 µg/mL | IC50 [5]: 0.0505 µg/mL | IC50 [2]: 6.8 ng/mL | IC50 [6]: 0.0433 µg/mL | Kd [7]: ≤ 1.1 nM | Kd [8]: ≤ 10.2 nM | IC50 [3]: 0.0856 µg/mL

B10: chimeric rabbit/human Fab ERR2-TOP2 (Fab, V domains shown)
VH: QSLEESGGRLVTPGTPLTLTCTVSGFSLSSYAISWVRQAPGKGLEWIGTIGTRGDTAYANWAKGRFTISKTSTTVTLKMTSPTTEDTATYFCARELVAGGGSDLWGPGTLVTVSS
VL: DVVMTQTPSSVSAVVGGTVTIKCQASQSITSWLSWYQQKPGQPPKLLIYGASHLASGVPSRFKGSGYGTEFTLTISGIQREDAATYYCLGGYLSASYQTAFGGGTKVEIK
binding result (hFc-hROR1): no binding (tested: 100 ng/50 µL) | binding result (BSA): no binding (tested: 100 ng/50 µL) | binding result [4]: binds

B11: chimeric rabbit/human Fab XBR2-416 (Fab, V domains shown)
VH: QEQLEESGGRLVTPGTPLTLTCTVSGFSLSSYWMSWVRQAPGKGLEWIGTITPGGNTDYATWAKARFTVSKTSTTVDLKITSPTTEDTATYFCARGIGGAADLWGPGTLVTISS
VL: AQVLTQTPSSTSAAVGGTVTIKCQASQSISSSDLSWYQQKPGQPPKLLIYATSYLASGVPSRFKGSGSGTEYTLTISGVQREDAATYYCLGGYPNTSYRSAFGGGTKVEIK
notes: also called Fab 4-16
binding result (hFc-hROR1): no binding (tested: 100 ng/50 µL) | binding result (BSA): no binding (tested: 100 ng/50 µL)

B12: chimeric rabbit/human Fab ERR2-316 (Fab, V domains shown)
VH: QKQLVESGGRLVTPGGSLTLTCTVSGFSLSKYGVSWVRQAPGSGLEYIGTIGGSGTSYYASWAKSRSTITRNTNLNTVTLKMTSLTAADTATYFCARYFGWNTGFDIWGPGTLVTISS
VL: DPVMTQTPSSVSEPVGGTVTIKCQASQSISNALAWYQQKPGQPPKRLIYKASTPASGVPSRFKGSRSGTEYTLTISGVQREDAATYYCLGFSVVSNDGWAFGAGTNVEIK
binding result (hFc-hROR1): no binding (tested: 100 ng/50 µL) | binding result (BSA): no binding (tested: 100 ng/50 µL)

B13: chimeric rabbit/human Fab ERR2-308 (Fab, V domains shown)
VH: QEQLEESGGRLVTPGTPLTLTCAVSGFSLSNYAMGWVRQAPGEGLEYIGWISAGGGAYYASWVNGRFTISKTSSTVDLKMTSLTAADTATYFCARGASNGCDLWGPGTLVTVSS
VL: DPMLTQTPSSVSAVVGGTVTIKCQASQSITSWLSWYQQKPGQPPKLLIYGASHLASGVPSRFKGSGYGTEFTLTISGIQREDAATYYCLGGYSNSDIVFGGGTELEIL
binding result (hFc-hROR1): no binding (tested: 100 ng/50 µL) | binding result (BSA): no binding (tested: 100 ng/50 µL)
